Legend:
Biotinylated CHIP = Biotinylated CHIP (UniProt Q9UNE7); assay: BLI
[1] = biological target: Biotinylated Ub-CHIP (monoubiquitinated CHIP) (UniProt P0CG48); assay: BLI

UniProt Q9UNE7, sequence (Q9UNE7 whole entry): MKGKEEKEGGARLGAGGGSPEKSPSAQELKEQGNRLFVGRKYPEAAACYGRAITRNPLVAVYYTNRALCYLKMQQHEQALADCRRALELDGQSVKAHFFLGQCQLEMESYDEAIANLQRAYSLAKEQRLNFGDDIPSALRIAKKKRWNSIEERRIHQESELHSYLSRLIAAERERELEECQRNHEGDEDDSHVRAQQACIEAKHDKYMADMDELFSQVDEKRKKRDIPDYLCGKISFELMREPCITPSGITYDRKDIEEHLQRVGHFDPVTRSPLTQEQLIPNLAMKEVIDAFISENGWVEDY

Kd (Biotinylated CHIP) [nM] | Kd [1] [nM] | Substance
2200 | 120 | ataxin-3, normal (Q22), recombinant (from UniProt P54252 1-361) (enzyme)
390 | 750 | ataxin-3, polyglutamine-expanded (Q80), recombinant (from UniProt P54252 1-361) (enzyme)

Source: paper PMC3166620
